B1: Insulin-induced gene 2 protein (Homo sapiens), Q9Y5U4 (parent)
chain: MAEGETESPGPKKCGPYISSVTSQSVNLMIRGVVLFFIGVFLALVLNLLQIQRNVTLFPPDVIASIFSSAWWVPPCCGTASAVIGLLYPCIDRHLGEPHKFKREWSSVMRCVAVFVGINHASAKVDFDNNIQLSLTLAALSIGLWWTFDRSRSGFGLGVGIAFLATVVTQLLVYNGVYQYTSPDFLYVRSWLPCIFFAGGITMGNIGRQLAMYECKVIAEKSHQE
partner: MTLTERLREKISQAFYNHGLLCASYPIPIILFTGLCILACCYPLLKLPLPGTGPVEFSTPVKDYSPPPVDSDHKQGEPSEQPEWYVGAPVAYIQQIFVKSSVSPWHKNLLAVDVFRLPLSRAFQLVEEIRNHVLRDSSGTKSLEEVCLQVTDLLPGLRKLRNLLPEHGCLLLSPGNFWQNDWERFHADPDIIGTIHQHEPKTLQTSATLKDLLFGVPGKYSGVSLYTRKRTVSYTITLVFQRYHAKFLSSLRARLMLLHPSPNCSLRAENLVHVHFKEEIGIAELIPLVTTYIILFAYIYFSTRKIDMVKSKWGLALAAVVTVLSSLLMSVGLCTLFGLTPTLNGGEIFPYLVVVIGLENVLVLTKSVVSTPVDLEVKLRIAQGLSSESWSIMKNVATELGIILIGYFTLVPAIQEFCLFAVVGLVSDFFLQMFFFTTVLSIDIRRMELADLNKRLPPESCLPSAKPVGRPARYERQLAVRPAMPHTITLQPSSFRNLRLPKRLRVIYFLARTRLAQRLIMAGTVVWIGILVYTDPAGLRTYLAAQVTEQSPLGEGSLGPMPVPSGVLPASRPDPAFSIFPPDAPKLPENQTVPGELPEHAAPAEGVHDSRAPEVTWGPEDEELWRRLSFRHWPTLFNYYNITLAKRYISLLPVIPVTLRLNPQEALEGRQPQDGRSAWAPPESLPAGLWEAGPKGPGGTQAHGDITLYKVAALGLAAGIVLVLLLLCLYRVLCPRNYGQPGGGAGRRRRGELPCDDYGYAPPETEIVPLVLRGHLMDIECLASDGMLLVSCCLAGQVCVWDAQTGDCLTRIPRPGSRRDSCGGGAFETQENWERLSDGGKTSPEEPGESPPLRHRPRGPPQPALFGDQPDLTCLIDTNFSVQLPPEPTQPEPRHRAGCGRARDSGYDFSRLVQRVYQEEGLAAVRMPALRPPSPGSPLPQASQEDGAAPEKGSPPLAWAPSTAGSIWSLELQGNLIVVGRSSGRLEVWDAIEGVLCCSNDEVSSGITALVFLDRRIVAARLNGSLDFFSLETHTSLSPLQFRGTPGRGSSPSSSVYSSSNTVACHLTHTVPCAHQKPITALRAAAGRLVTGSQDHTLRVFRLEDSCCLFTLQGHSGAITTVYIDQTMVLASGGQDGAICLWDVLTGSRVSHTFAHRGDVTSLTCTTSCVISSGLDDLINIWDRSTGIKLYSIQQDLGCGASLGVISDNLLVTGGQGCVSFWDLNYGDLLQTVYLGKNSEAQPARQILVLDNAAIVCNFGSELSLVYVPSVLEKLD

Variants of: B1
Conditions: with scap_crigr SCAP

Variant | effect of a mutation on the interaction
MAEGETESPGPKKCGPYISSVTSQSVNLMIRGVVLFFIGVFLALVLNLLQIQRNVTLFPPDVIASIFSSAWWVPPCCGTASAVIGLLYPCIDRHLGEPHKFKREWSSVMRCVAVFVGINHASAKVDFDNNIQLSLALAALSIGLWWTFDRSRSGFGLGVGIAFLATVVTQLLVYNGVYQYTSPDFLYVRSWLPCIFFAGGITMGNIGRQLAMYECKVIAEKSHQE [T136A] | decreasing interaction strength
MAEGETESPGPKKCGPYISSVTSQSVNLMIRGVVLFFIGVFLALVLNLLQIQRNVTLFPPDVIASIFSSAWWVPPCCGTASAVIGLLYPCIDRHLGEPHKFKREWSSVMRCVAVAVGINHASAKVDFDNNIQLSLTLAALSIGLWWTFDRSRSGFGLGVGIAFLATVVTQLLVYNGVYQYTSPDFLYVRSWLPCIFFAGGITMGNIGRQLAMYECKVIAEKSHQE [F115A] | disrupting interaction strength

Reference: IntAct's records for PubMed 17428920
